Assay results: patent publication US20260183429A1 (TRUSTEES OF COLUMBIA UNIVERSITY IN THE CITY OF NEW YORK, published 2026)

Target: T1, endogenous MFN2 in WT mouse embryonic fibroblasts (MEFs) (mouse, UniProt Q80U63 1-757)
T1 construct: Detected in situ by proximity ligation assay; also called mitofusin-2
T1 sequence (looked up): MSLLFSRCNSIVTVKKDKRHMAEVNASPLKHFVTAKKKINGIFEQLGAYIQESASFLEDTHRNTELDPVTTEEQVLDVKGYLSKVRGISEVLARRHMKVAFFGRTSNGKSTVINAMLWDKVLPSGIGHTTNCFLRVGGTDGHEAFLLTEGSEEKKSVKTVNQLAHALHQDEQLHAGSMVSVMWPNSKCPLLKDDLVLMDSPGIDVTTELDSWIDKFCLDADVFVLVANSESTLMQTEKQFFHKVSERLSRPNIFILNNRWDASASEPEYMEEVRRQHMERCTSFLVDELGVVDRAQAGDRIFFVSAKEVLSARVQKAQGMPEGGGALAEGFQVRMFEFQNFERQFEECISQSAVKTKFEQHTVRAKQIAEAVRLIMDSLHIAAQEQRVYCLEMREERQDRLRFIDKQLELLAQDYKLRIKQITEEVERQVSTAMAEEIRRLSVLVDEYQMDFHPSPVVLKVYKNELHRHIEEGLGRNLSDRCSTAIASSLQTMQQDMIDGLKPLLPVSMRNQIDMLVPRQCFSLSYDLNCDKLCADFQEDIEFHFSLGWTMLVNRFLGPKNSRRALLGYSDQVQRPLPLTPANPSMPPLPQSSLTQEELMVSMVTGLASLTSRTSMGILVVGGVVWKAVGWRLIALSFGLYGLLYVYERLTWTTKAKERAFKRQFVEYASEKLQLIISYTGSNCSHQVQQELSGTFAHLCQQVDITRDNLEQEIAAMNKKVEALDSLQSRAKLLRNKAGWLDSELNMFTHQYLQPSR
Assay: proximity ligation assay of MFN2 and ATAT1 in WT MEFs

binding result: binds
B1: endogenous ATAT1 in WT mouse embryonic fibroblasts (MEFs) (enzyme, UniProt Q8K341 1-421, looked up)
chain: MEFPFDVDALFPERITVLDQHLRPPARRPGTTTPARVDLQQQIMTIVDELGKASAKAQHLPAPITSALRMQSNRHVIYILKDTSARPAGKGAIIGFLKVGYKKLFVLDDREAHNEVEPLCILDFYIHESVQRHGHGRELFQHMLQKERVEPHQLAIDRPSPKLLKFLNKHYNLETTVPQVNNFVIFEGFFAHQHRPPTSSLRATRHSRAAVADPIPAAPARKLPPKRAEGDIKPYSSSDREFLKVAVEPPWPLNRAPRRATPPAHPPPRSSSLGNSPDRGPLRPFVPEQELLRSLRLCPPHPTARLLLATDPGGSPAQRRRTRGTPWGLVAQSCHYSRHGGFNTSFLGTGNQERKQGEQEAEDRSASEDRVLLLDGSGEEPTQTGAPRAQAPPPQSWTVGGDIMNARVIRNLQERRSTRPW
notes: Detected in situ by proximity ligation assay
